Measured values reported in the nanobody polyreactivity screen of Harvey et al. (2022).

Experiment: yeast display, Sf9 membrane polyspecificity reagent, FACS + sequencing; frameworks hold sequencing errors
Procedure, shortened: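 Nanobodies from a synthetic yeast display library (Saccharomyces cerevisiae BJ5465), induced 36–48 hours with galactose, were stained 1 hour at 4 °C with 10% biotinylated, detergent-solubilized Sf9 membrane reagent, enriched on streptavidin microbeads, then FACS-sorted. Anti-HA (expression) and streptavidin (reagent binding) fluorescence set low and high (top ~1%) gates. Polyreactivity labels come from the gate of origin. Genes were colony-PCR amplified, MiSeq 2 × 250 sequenced and filtered by CDR length.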

Sequence	polyreactivity (PSR sort gate)
QVQLVESGGGLVQAGGSLRLSCAASGFIFRRYTMGWSRQAHGKERELVAAITSSGGTNYADSVKGRFTISRDNAKNTVYLQMNSLKPEDTAVYFCAAESVSSVWYDYLGQGTQVTVSS	high polyreactivity
QVQLVESGGGLVQAGGSLRLSCAASGFIFRRYTMGWYRQAPGKERELVATITRSVNTDYADSVKGRFTFSRDNAKNTVYLQMNSLKPEDTAVYYCAARKYYYFPVAYDYWGQGTQVTVSS	high polyreactivity
QVQLVESGGGLVQAGGSLRLSCAASGFIFRTYAMAWYRQAPGKERELVAAIRQSAGRTYYADSVKGRFTISRDNAKNTVYLQMISLKPEDTAVYYCAADRSPYRRQYDYWGQGTQVTVSS	high polyreactivity
QVQLVESGGGLVQAGGSLRLSCAASGFIFRTYAMGWYRQAPGKERELVAAISGTTGSTYYADSVKGRFTISRDNAKNTVYLQMNSLKPEDTAVYFCAADYYWYIRYEYWGQGSQVTVSS	low polyreactivity
QVQLVESGGGLVQAGGSLRLSCAASGFIFRVYGMGCYRQATAKERELVAAMTGGCGSTYYADSVKGRFTISRDNAKNTVYLQMNSLKPEDTAVYYCAAVRYSGVRYRYGIYSDTMDYWGQGTQVTVSS	high polyreactivity
QVQLVESGGGLVQAGGSLRLSCAASGFIFRWYAMGWSRQAPGKERELVAAISRSGDSTYYADSVKGRFTISRDNAKNTVYLQMNSLKPEDSAVYYCAADDRYYTYGYDYWGQGTQVTVSS	low polyreactivity
QVQLVESGGGLVQAGGSLRLSCAASGFIFRYNAMGLYRQAPGKERELVARINSGVSTNYADSVKGRFTISRDNAKNTVYLQMNSLKPEDTAVYYCNARVRRGYSRFDYWGQGTQVTVSS	high polyreactivity
QVQLVESGGGLVQAGGSLRLSCAASGFIFRYNAMGWYRQAPGKERELVARISSGGSTNYADSVKGRFTISRDNAKNTVYLQMNSLKPEDTAVYYCAVKQYWYIWSGYGYDYWGQGTQVTVSS	high polyreactivity
QVQLVESGGGLVQAGGSLRLSCAASGFIFRYYAMAWYRQAPGKERELVASISRRGGSTYYADSVKGRFTISRDNSKNTFYLQMIRLIPEDTAVYYCAADVVNTVYYPGYDYLGQGTQVTVSS	high polyreactivity
QVQLVESGGGLVQAGGSLRLSCAASGFIFRYYAMGSYRQAPGKERELVAAITSGGASTYYADSVKGRFTISRDNAMNTVYLQMNSLKPDDTAVYYCAADTSSYSEYEYWGQGTQVTVSS	low polyreactivity
QVQLVESGGGLVQAGGSLRLSCAASGFIFRYYAMGWYRQAPGKERELVAAIDYSGGSTNYADSVKGRFTISRDYAKNTVYLQMNSQKPEDTAVYYCNAEYTWHRGYDYWGQGTQVTVSS	low polyreactivity
QVQLVESGGGLVQAGGSLRLSCAASGFIFRYYAMGWYRQAPGKERELVAAIRRGGSTSYADSVKGRFTISRDNAKNTVYLQMNSLKPEDTAVYYCNALGNFGMDYWGQGTQVTVSS	high polyreactivity
QVQLVESGGGLVQAGGSLRLSCAASGFIFRYYAMGWYRQAPGKERELVAAISGNGGNTYYADSVKGRFTISRDNAKNTVYLQMNSLKPEDTAVYYCNRAPGYRGGRYDYWGQGTQVTVSS	high polyreactivity
QVQLVESGGGLVQAGGSLRLSCAASGFIFRYYAMGWYRQAPGKERELVAAISSRGGSTYYADSVKGRFTISRDNAKNTVYLQMNSLKPEDTAVYYCAKRGFYTDRDYWGQGTQVTVSS	high polyreactivity
QVQLVESGGGLVQAGGSLRLSCAASGFIFRYYAMGWYRQAPGKERELVAAISWSGSRTYYADSVKGRFTISRDNAKNTVYVQMNSLKPEDTAVYYCAADGNVGVTKGRFDYWGQGTQVTVSS	high polyreactivity
QVQLVESGGGLVQAGGSLRLSCAASGFIFRYYAMGWYRQAPGKERELVAAITRGGSTYYADSVKGRFTISRDNAKNTVYLQMNSLKPEDTAVYDCAARLYTQYYYWGQGTQVTVSS	high polyreactivity

Sequence	polyreactivity (PSR sort gate)
QVQLVESGGGLVQAGGSLRLSCAASGFIFRYYGMGWYRQAPGKERELVAAITDGGSTTYADSVKGRFTISRDNAKNTVYLQMNSLKPEDTAVYYCNAEAGGFDYYGKTYRYGDYWGQGTQVTVSS	low polyreactivity
QVQLVESGGGLVQAGGSLRLSCAASGFIFRYYSMAWYRQAPGKERELVAAISGSGGGTYYADSVKGRFTISRDYAKNTVYLQMNSLKPEDTAVYYCNARKVYSRRYKYDYWGQGSQVTVSS	high polyreactivity
QVQLVESGGGLVQAGGSLRLSCAASGFIFRYYTMGWYRQAPGKERELVARISSGGSTTYADSVKGRFTISRDNAKNTVYLQMNSLKPEDTAVYYCHARVKRWYFGNANHSPEYDYWGKGTQVTVSS	low polyreactivity
QVQLVESGGGLVQAGGSLRLSCAASGFIFSANAMGWYRQAPGKERELVAAISSRGTSTYYADSVKGRFTISRDYAKNTVYLQMNSLKPEDTGVYFCAADYYQAGTYVWMDYWGQGTQVTVSS	high polyreactivity
QVQLVESGGGLVQAGGSLRLSCAASGFIFSGYAMGWYRQAPGKERELVAAIRWNGGRTYYADSVKGRFTISRDNAKNTVYLQMNSLKPEDTAVYYCAAGSGRDYGYRYFFWRYDYWGQGTQVTVSS	high polyreactivity
QVQLVESGGGLVQAGGSLRLSCAASGFIFSGYTMGWYRQAPGKERELVAAITKRGGRTYYADSVKGRFTISRDNAKNTVYLQMNSLKPEDTAVYYCNVDVKVYSDETTDGDYWGQGTQVTVSS	high polyreactivity
QVQLVESGGGLVQAGGSLRLSCAASGFIFSIYAMGWYRQAPGKERELVAAISGTGSTSYADSVKGRFTISRDNAKNTVYLQMNSLKPEDTAVYYCAKDGPGRLGDDYWGQGTQVTVSS	low polyreactivity
QVQLVESGGGLVQAGGSLRLSCAASGFIFSIYAMGWYRQAPGKERELVATITYSGGSTYYADSVKGRFTISRDNAKNTVYLQMNSLKPEDTAVYYCNALSKGYYTIGGYSWGQGTQVTVSS	low polyreactivity
QVQLVESGGGLVQAGGSLRLSCAASGFIFSLYAMGWYRQAPGKERELVAAISRSDDRTYYADSVKGRFTISRDDAKNTVYLQMNSLKPEDTAVYYCNVRYSYILIYEYWGQGTQVTVSS	low polyreactivity
QVQLVESGGGLVQAGGSLRLSCAASGFIFSLYAMGWYRQAPGKERELVAVITWSDGRTYYADSVKGRFTISRDNAKNTVYLQMNSLKPEDTAVYYCAAADWITEYDYWGQGTQVTVSS	low polyreactivity
QVQLVESGGGLVQAGGSLRLSCAASGFIFSPNALGWYRPAPGKEREFVAAIRYSGTSTSYADSVKGRFTISRDNAKNTVYLQMNSLKPEDTAVYYCNAQWRFSRGYTYNYWGQGTQVTVSS	high polyreactivity
QVQLVESGGGLVQAGGSLRLSCAASGFIFSPNAMGWYRQAPGKEREFVAAIRYSGTSTSYADSVKGRFTISRDNAKNTVYLQMNSLKPEDTAVDYCAAQSRQRTGMYYWGQGTQVTVSS	high polyreactivity
QVQLVESGGGLVQAGGSLRLSCAASGFIFSRNALGWYRQAPGKERELVAVISTRGGSTYYADSVKGRFTISRDNAKNTVYLQMNSLKPEDTAVYYCAARRTRGYEYWGQGTQVTVSS	high polyreactivity
QVQLVESGGGLVQAGGSLRLSCAASGFIFSRNAMGWYRQAPGKERELVAAISAGGGSTYYADSVKGRFTISLDNAKYTVYLQMNSLKPEDSAVYSCAAYFRSQFGYWGQGTEVTVSS	high polyreactivity
QVQLVESGGGLVQAGGSLRLSCAASGFIFSRYAMGCYRQSPGKERELVATIRRSGRTNYADSVKGRFTISRDNAKNTFYLQMNSLKPEDTAVYYCAKPGQWHRYHYGSWGQGTQVTVSS	low polyreactivity
QVQLVESGGGLVQAGGSLRLSCAASGFIFSRYAMGWYRQAPGKERELVAAISWSGASTYYADSVKGRFTISRDNAKNTVYLQMNSLKPEDTAVYYCNAGYYRGEGFYTYDYWGQGTQVTVSS	high polyreactivity
